Data reported in US7063950.

How the values were obtained:
[1] = biological target: human neuronal calcium channel subunits α1B-1α2b (human)
[2] = biological target: human neuronal calcium channel subunits α1B-1α2b (human); remark: listed apart in the source
[3] = biological target: human neuronal calcium channel subunits α1B-1β1-2 (human)
[4] = biological target: human neuronal calcium channel subunits α1B-1β1-3 (human)
[5] = biological target: human neuronal calcium channel α1B-1α2bβ1-2 (human)
[6] = biological target: human neuronal calcium channel α1B-1α2bβ1-3 (human)
[7] = biological target: human neuronal calcium channel α1B-2α2bβ1-2 (human)
[8] = biological target: human neuronal calcium channel subunits α1B-1β1-2 (human); test: saturation binding of 125I-ω-CgTx GVIA to transiently transfected HEK293 cells
[9] = biological target: human neuronal calcium channel subunits α1B-1β1-3 (human); test: as above
[10] = biological target: human neuronal calcium channel subunits α1B-2β1-2 (human); test: as above
[11] = biological target: human neuronal calcium channel subunits α1B-2β1-3 (human); test: as above
[12] = biological target: human neuronal calcium channel α1B-1α2bβ1-2 (human); test: as above
[13] = biological target: human neuronal calcium channel α1B-1α2bβ1-3 (human); test: as above
[14] = biological target: human neuronal calcium channel α1B-2α2bβ1-2 (human); test: as above
[15] = biological target: human neuronal calcium channel α1E-3α2bβ1-3 (human); test: cell-based or functional assay

With “125I-ω-CgTx GVIA (from UniProt P01522 46-72) (peptide)” as the substance, how does the Bmax (sites/cell) [1] read?
Its Bmax (sites/cell) is 2260 sites/cell.

What about the Kd [1] of the same substance?
The Kd was 0.0846 nM.

And the fold increase of binding capacity against α1B-1 alone [2]?
The fold increase of binding capacity against α1B-1 alone was 3 fold.

And the fold increase of surface binding against α1B-1 alone [3]?
Its fold increase of surface binding against α1B-1 alone is 8 fold.

And the fold increase of surface binding against α1B-1 alone [4]?
Its fold increase of surface binding against α1B-1 alone is 10 fold.

And the fold binding sites per cell against α1B-2α2bβ1-2 [5]?
Its fold binding sites per cell against α1B-2α2bβ1-2 is 2.5 fold.

And the fold surface receptor density against α1B-1β1-2 [5]?
The fold surface receptor density against α1B-1β1-2 was 8 fold.

What about the fold binding capacity against α1B-1α2bβ1-2 [6] of the same substance?
Its fold binding capacity against α1B-1α2bβ1-2 is 2 fold.

What about the fold binding sites per cell against α1B-2α2bβ1-3 [6] of the same substance?
Its fold binding sites per cell against α1B-2α2bβ1-3 is 2.5 fold.

What about the fold surface receptor density against α1B-1β1-3 [6] of the same substance?
Its fold surface receptor density against α1B-1β1-3 is 10 fold.

And the fold surface receptor density against α1B-2β1-2 [7]?
The fold surface receptor density against α1B-2β1-2 was 9 fold.

And the Bmax (sites/cell) [8]?
Its Bmax (sites/cell) is 5760 sites/cell.

And the Kd [8]?
The Kd was 0.0179 nM.

And the Bmax (sites/cell) [9]?
Its Bmax (sites/cell) is 8730 sites/cell.

What about the Kd [9] of the same substance?
Its Kd is 0.0179 nM.

And the Bmax (sites/cell) [10]?
The Bmax (sites/cell) was 2130 sites/cell.

What about the Kd [10] of the same substance?
Its Kd is 0.0164 nM.

And the Bmax (sites/cell) [11]?
The Bmax (sites/cell) was 2940 sites/cell.

And the Kd [11]?
The Kd was 0.0222 nM.

What about the Bmax (sites/cell) [12] of the same substance?
Its Bmax (sites/cell) is 45300 sites/cell.

What about the Kd [12] of the same substance?
The Kd was 0.0549 nM.

And the Bmax (sites/cell) [13]?
The Bmax (sites/cell) was 91000 sites/cell.

What about the Kd [13] of the same substance?
The Kd was 0.0532 nM.

What about the Bmax (sites/cell) [14] of the same substance?
Its Bmax (sites/cell) is 19400 sites/cell.

What about the Kd [14] of the same substance?
The Kd was 0.053 nM.

“ω-Aga-IVa (from UniProt P30288 1-48) (peptide)” was tested. Which block of barium current (whole-cell patch clamp, HEK 293 cells) (% block at 10 nM) [15] did it give?
Its block of barium current (whole-cell patch clamp, HEK 293 cells) (% block at 10 nM) is 73.
